Reference: patent publication US20240287501A1 (VIB VZW, published 2024)

How the values were obtained:
[1] = biological target: T1, GFP-tagged MET6 (Saccharomyces cerevisiae, UniProt P05694 2-767); test: co-immunoprecipitation, Nb coupled to NHS-agarose beads, lysate of the yeast strain expressing the GFP-tagged target, Western blot anti-GFP
T1 construct: Yeast GFP Fusion Collection strain; also called Yeast GFP fusion collection GFP(+)07, D4; YER091C; not shown: GFP tag
T1 sequence (looked up): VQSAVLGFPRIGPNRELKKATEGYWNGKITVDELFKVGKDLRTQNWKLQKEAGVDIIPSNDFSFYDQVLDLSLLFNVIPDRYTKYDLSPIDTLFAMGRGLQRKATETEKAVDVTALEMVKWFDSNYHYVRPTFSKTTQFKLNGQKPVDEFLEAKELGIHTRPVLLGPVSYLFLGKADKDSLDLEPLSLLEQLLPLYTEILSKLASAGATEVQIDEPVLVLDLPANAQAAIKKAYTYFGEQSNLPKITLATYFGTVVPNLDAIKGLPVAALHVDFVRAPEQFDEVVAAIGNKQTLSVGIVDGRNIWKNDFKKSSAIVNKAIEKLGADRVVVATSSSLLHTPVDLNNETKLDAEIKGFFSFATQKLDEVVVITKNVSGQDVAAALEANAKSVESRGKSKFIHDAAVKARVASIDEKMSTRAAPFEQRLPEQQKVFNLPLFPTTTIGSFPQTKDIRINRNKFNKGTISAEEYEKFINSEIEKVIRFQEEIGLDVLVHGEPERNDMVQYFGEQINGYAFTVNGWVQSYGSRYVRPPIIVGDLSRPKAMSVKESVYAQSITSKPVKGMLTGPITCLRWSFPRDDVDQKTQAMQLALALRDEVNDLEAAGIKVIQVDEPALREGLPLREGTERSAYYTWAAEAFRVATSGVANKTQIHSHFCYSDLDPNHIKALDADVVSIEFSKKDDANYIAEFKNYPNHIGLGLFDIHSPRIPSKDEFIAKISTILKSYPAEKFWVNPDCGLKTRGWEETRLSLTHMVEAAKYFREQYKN
From the text: (§1) One HSP104-specific Nanobody (04=CA18504 SEQ ID NO:40), one MET6-specific Nanobody (05=CA18505 SEQ ID NO:41), two SBA1-specific Nanobodies (08=Nb clone CA18508 corresponding to SEQ ID NO:42, 09=CA18509-SEQ ID NO:43), one SOD1-specific Nanobody (10=CA18510-SEQ ID NO:44), and a ENO1-specific Nanobody (38=CA17938-SEQ ID NO:45), were characterized by co-immunoprecipitation assays. Each POI-specific Nanobodies was covalently linked to NHS-agarose beads. The beads that were functionalized with these POI-specific Nanobodies were incubated for an hour at 4° C. on a rotating device with the lysate of the engineered Yeast strain expressing the POIs (Yeast GFP fusion collection reference: GFP(+)05, A2 (HSP104); GFP(+)07, D4 (MET6); GFP(+)30, A6 (SBA1); GFP(+)33, F8 (SOD1) and GFP(+)17, D12 (ENO1) as a GFP-tagged protein. After washing, these beads were analyzed on SDS-PAGE (not shown) and Western blot was developed with GFP-specific antibody to confirm the presence of GFP-tagged POIs.

[2] = biological target: T2, GFP-tagged BMH1 (Saccharomyces cerevisiae, UniProt P29311 2-267); test: as above
T2 construct: Yeast GFP Fusion Collection strain; also called Yeast GFP fusion collection GFP(+)27, D5; not shown: GFP tag
T2 sequence (looked up): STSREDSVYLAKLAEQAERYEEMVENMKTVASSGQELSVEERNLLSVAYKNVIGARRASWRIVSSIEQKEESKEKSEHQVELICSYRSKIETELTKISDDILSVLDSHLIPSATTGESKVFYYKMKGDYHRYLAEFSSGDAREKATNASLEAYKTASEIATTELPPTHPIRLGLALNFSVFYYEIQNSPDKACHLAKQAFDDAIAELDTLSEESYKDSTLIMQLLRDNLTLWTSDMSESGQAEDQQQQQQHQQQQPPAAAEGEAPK
Description: One SIS1-specific Nanobody (44=Nb clone CA17444 corresponding to SEQ ID NO: 9), three ALD6-specific Nanobodies (53=CA17453-SEQ ID NO: 10, 54=CA17454-SEQ ID NO: 11, 60=CA17460-SEQ ID NO: 12), two BMH1-specific Nanobodies (58=CA17458-SEQ ID NO: 13, 59=CA17459-SEQ ID NO: 14) were characterized by co-immunoprecipitation assays. Each target-specific Nanobodies was covalently linked to NHS-agarose beads. The beads that were functionalized with these target-specific Nanobodies were incubated for an hour at 4° C. on a rotating device with either an EBY100 lysate or the lysate of the engineered Yeast strain expressing the target (Yeast GFP fusion collection reference for SIS1: GFP(+)22, E5, for ALD6: GFP(+)15, F1, for BMH1: GFP(+)27, D5) as a GFP-tagged protein. After washing, these beads were resuspended in SDS-PAGE loading dye and analyzed on SDS-PAGE (FIG. 8A). Separated proteins were transferred to a PVDF membrane and the Western blot (FIG. 8B) was developed with GFP-specific antibody to confirm the presence of GFP-tagged targets.

[3] = biological target: T3, BMH1 (native, from EBY100 lysate) (Saccharomyces cerevisiae, UniProt P29311 2-267); test: co-IP, Nb on NHS-agarose beads, EBY100 yeast lysate, SDS-PAGE
T3 construct: mature; Endogenous untagged protein; also called YER177W
T3 sequence (looked up): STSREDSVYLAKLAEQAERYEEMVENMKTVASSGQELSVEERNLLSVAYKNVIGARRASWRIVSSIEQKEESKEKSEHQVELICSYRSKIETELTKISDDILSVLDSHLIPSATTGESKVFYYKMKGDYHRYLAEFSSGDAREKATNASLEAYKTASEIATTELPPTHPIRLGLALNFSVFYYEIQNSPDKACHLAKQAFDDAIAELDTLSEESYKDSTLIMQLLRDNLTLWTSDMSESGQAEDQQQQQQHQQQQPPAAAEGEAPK

[4] = biological target: T4, GFP-tagged HSP104 (Saccharomyces cerevisiae, UniProt P31539 1-908); test: co-immunoprecipitation, Nb coupled to NHS-agarose beads, lysate of the yeast strain expressing the GFP-tagged target, Western blot anti-GFP
T4 construct: Yeast GFP Fusion Collection strain; also called Yeast GFP fusion collection GFP(+)05, A2; YLL026W; not shown: GFP tag
From the text: as §1

[5] = biological target: T5, GFP-tagged SSA1 (Saccharomyces cerevisiae, UniProt P10591 2-642); test: co-immunoprecipitation, Nb coupled to NHS-agarose beads, lysate of the yeast strain expressing the GFP-tagged target, SDS-PAGE
T5 construct: Yeast GFP Fusion Collection strain; also called Yeast GFP fusion collection GFP(+)10, E4; not shown: GFP tag
Description: (§2) Six SSA1-specific Nanobodies (60=Nb clone CA17560 corresponding to SEQ ID NO: 19, 61=CA17561-SEQ ID NO: 20, 62=CA17562-SEQ ID NO: 21, 63=CA17563-SEQ ID NO: 22, 64=CA17564-SEQ ID NO: 23, 65=CA17565-SEQ ID NO: 24) were characterized by co-immunoprecipitation assays. Each SSA1-specific Nanobodies was covalently linked to NHS-agarose beads. The beads that were functionalized with these SSA1-specific Nanobodies were incubated for an hour at 4° C. on a rotating device with either an EBY100 lysate or the lysate of the engineered Yeast strain expressing SSA1 (Yeast GFP fusion collection reference: GFP(+)10, E4) as a GFP-tagged protein. After washing, these beads were resuspended in SDS-PAGE loading dye and analyzed on SDS-PAGE (FIG. 6A). Separated proteins were transferred to a PVDF membrane and the Western blot (FIG. 6B) was developed with GFP-specific antibody to confirm the presence of GFP-tagged SSA1.

[6] = biological target: T6, SSA1 (native, from EBY100 lysate) (Saccharomyces cerevisiae, UniProt P10591 2-642); test: co-immunoprecipitation, Nb coupled to NHS-agarose beads, EBY100 yeast lysate (native target), SDS-PAGE
T6 construct: mature; Endogenous untagged protein; also called YAL005C
Description: as §2

[7] = biological target: T7, GFP-tagged ENO1 (Saccharomyces cerevisiae, UniProt P00924 2-437); test: co-immunoprecipitation, Nb coupled to NHS-agarose beads, lysate of the yeast strain expressing the GFP-tagged target, Western blot anti-GFP
T7 construct: Yeast GFP Fusion Collection strain; also called Yeast GFP fusion collection GFP(+)17, D12; YGR254W; not shown: GFP tag
From the text: as §1

[8] = biological target: T8, GFP-tagged SBA1 (Saccharomyces cerevisiae, UniProt P28707 2-216); test: as above
T8 construct: Yeast GFP Fusion Collection strain; also called Yeast GFP fusion collection GFP(+)30, A6; YKL117W; not shown: GFP tag
T8 sequence (looked up): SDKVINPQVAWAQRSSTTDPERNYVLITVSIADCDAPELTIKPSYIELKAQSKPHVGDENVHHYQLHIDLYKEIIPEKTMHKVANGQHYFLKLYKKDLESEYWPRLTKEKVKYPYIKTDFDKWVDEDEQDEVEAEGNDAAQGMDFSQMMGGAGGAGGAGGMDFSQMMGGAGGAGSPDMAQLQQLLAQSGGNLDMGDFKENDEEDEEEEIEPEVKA
From the text: as §1

[9] = biological target: T9, GFP protein (Aequorea victoria (Water jellyfish) …, UniProt P42212 1-238 = GFP, biotinylated with the EZ-Link sulfo-NHS-LC-biotinylation kit for the BLI assay; unmodified in the NANEX selections); test: method not stated
T9 construct: Purified GFP; also called wild type GFP; biotinylated GFP

[10] = biological target: T10, GFP-tagged SOD1 (Saccharomyces cerevisiae, UniProt P00445 2-154); test: co-immunoprecipitation, Nb coupled to NHS-agarose beads, lysate of the yeast strain expressing the GFP-tagged target, Western blot anti-GFP
T10 construct: Yeast GFP Fusion Collection strain; also called Yeast GFP fusion collection GFP(+)33, F8; YJR104C; not shown: GFP tag
T10 sequence (looked up): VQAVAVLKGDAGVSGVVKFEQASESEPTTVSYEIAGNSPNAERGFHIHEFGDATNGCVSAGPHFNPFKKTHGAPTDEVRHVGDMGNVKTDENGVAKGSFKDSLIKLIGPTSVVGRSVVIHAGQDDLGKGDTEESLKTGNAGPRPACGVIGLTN
From the text: as §1

T7 sequence (P00924 2-437): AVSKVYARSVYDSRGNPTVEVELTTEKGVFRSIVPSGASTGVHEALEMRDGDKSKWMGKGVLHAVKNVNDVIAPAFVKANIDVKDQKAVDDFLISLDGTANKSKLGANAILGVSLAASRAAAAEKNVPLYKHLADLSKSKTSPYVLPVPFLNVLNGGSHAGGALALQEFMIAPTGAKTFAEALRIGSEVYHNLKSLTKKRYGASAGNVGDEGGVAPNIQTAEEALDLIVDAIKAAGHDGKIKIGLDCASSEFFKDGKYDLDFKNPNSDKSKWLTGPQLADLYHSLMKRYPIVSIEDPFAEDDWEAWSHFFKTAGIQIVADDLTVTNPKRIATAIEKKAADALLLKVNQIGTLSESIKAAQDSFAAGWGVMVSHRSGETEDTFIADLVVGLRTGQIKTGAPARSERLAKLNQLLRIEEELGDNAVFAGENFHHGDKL
T6 sequence (P10591 2-642): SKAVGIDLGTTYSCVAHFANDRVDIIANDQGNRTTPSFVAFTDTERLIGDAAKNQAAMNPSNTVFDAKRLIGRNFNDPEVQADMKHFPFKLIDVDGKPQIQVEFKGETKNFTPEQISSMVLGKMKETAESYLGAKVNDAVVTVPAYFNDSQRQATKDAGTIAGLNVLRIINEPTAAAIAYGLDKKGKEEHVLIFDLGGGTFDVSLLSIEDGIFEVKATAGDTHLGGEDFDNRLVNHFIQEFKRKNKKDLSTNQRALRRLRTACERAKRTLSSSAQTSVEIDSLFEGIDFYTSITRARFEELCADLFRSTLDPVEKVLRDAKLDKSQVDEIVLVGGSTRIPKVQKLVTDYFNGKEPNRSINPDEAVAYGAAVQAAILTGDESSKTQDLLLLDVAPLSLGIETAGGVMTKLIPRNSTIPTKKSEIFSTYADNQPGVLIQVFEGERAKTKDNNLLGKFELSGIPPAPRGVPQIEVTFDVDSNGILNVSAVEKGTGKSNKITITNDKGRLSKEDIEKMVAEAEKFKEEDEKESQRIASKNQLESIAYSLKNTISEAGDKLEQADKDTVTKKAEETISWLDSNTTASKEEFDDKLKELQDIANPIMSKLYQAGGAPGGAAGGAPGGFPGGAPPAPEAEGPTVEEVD
T5 sequence (P10591 2-642): as above
T4 sequence (P31539 whole entry, the tested form may be a part): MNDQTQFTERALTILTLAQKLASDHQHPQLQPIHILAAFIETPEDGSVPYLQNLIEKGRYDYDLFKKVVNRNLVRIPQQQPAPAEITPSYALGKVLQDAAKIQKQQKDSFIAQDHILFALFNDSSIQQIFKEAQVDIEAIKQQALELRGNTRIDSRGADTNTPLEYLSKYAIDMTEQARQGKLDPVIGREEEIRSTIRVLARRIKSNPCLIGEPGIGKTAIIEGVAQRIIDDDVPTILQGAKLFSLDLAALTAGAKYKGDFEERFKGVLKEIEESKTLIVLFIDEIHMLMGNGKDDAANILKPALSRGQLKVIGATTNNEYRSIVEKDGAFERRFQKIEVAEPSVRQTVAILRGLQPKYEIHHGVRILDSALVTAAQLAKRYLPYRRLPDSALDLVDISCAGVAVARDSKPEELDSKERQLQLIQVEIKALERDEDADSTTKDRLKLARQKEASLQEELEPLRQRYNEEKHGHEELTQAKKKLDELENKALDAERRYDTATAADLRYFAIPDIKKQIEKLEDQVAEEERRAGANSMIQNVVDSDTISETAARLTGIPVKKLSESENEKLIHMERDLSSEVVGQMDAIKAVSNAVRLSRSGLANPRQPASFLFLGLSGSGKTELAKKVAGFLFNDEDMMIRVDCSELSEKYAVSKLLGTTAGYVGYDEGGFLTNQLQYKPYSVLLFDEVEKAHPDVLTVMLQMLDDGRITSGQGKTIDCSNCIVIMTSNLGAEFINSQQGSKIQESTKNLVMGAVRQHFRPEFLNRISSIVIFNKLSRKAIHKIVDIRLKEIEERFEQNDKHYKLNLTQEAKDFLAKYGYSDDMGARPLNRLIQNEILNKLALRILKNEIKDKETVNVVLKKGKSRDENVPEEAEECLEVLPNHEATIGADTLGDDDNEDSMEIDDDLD

B1: CA18505 (VHH)
VHH: QVQLVESGGGLVQPGGSLRLSCAASGSIFSINAWGWYRQAPGKERELVAVITSVGGRTNYADSVKGRFTISRDNAKDMVYLQMNSLKPEDTAVYYCNSRGSSWYFGTPQDYWGQGTQVTVSS
notes: C-terminal 6xHis-EPEA tag is part of the entry
B1: binds [1].

B2: CA17458 (VHH)
VHH: QVQLVESGGGLVQPGGSLRLSCAASGTTLSLRRVGWYRQAPGKQRDLVATLTSGGETSYADSVKGRFTISRDNAKNTVYLQMNSLKLEDTAVYYCNAINWPMDYWGQGTQVTVSS
notes: as for B1
B2: binds [2]; binds [3].

B3: CA18504 (VHH)
VHH: QVQLVESGGGLVQPGGSLTLSCAGSGRAFDSIAMGWFRQAPGKEREFVAAISWNGVSAYYADSVKGRFTISRDNAKNTVHLQMNSLQSDDTAVYYCHADNSWGQGTQVTVSS
notes: as for B1
B3: binds [4].

B4: CA17560 (VHH)
VHH: QVQLVESGGGLVHSGGSLRLSCVASGGAFNDYTMGWFRQAPGKERQFVAAITWSSGVTSYSDSVRGRFVISRDIAKNTVYLQMNSLNPEETAVYVCAARLGVSSSPNSQISHRYDYWGQGTQVTVSS
notes: as for B1
B4: binds [5]; binds [6].

B5: CA17938 (VHH)
VHH: QVQLVESGGGLVQPGGSLRLSCAASGFTLDTWAIGWFRQVPGKDREGAACISSEPSSTYYGEFVNGRFTISRDSAKSTVYLQMNDLKPEDTAVYYCSADRLSAYCSGSGGWGQGTQVTVSS
notes: as for B1
B5: binds [7].

B6: CA18509 (VHH)
VHH: QVQLVESGGGLVQPGGSLRLSCAAAGFTFRMLDMSWYRQAPGKERELVATITSVSGTTNYADSVKGRVTISRDNAKNTVYLQMNSLKPEDTAVYYCNARMAAWGLDYWGQGTQVTVSS
notes: as for B1
B6: binds [8].

B7: CA15816 (VHH)
VHH: QVQLVESGGGLVQAGGSLRLSCAASGRTFSTAAMGWFRQAPGKERDFVAGIYWAAGSTYYADSAKGRFTISRDNAKNTVYLQMDSLKPEDTAVYYCAARRRGFTLAPTRANEYDYWGQGTQVTVSS
notes: C-terminal 6xHis-EPEA tag is part of the entry, which already carries T54A/V55A; also called GFP trapper; GFP-specific trapper
B7 was tested, and the Kd [9] was 2.7 nM.

B8: CA18508 (VHH)
VHH: QVQLVESGGGLVQPGGSLRLSCAASGFTFSNTAMSWYRQAPGKERELVAVSTSAGGGTDYADSVQGRFTISRDNAKNTVYLQMNDLKPEDTAVYYCYAVGRYRSSWRLLPFGSWGQGTQVTVSS
notes: as for B1
B8: binds [8].

B9: CA18510 (VHH)
VHH: QVQLVESGGGLVEAGGSLRLSCAASGRTFSSYAMGWFRQAPGKEREFVAAISWSGGSTYYADSVKGRFTISRDNAKNTVYLQMNSLKPEDTAVYYCAAPTAYHYSTTRDEYDSWGQGTQVTVSS
notes: as for B1
B9: binds [10].
